The values below come from PMC8395052.

The experiment concerns the target T1, human estrogen receptor-alpha (ERα) fused at its N-terminus with NanoLuc luciferase (Nluc-ERα) or HaloTag (HT-ERα) (human), P03372.
T1 chain: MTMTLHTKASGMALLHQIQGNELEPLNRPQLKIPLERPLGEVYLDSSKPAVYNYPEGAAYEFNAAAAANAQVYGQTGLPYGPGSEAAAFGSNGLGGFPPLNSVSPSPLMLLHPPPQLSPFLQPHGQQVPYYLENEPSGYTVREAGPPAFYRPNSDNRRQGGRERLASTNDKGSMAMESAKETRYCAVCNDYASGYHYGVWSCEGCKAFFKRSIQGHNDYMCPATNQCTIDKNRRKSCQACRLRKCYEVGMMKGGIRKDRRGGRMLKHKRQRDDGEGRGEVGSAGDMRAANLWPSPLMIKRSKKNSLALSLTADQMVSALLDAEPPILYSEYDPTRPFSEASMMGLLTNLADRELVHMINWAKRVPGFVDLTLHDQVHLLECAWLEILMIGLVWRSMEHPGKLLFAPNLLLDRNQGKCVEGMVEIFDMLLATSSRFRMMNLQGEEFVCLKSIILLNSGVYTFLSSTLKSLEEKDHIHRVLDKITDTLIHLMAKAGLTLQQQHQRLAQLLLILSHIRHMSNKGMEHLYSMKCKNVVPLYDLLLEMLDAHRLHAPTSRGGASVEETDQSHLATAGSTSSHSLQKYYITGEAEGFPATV
The experiment in a line: FRET or BRET; NanoBRET in living HEK293 cells co-transfected with Nluc-ERα (donor) and HT-ERα (acceptor), 1:1; HaloTag NanoBRET 618 ligand; cells treated 24 h with E2, 17α-estradiol, diethylhexyl phthalate, bisphenol A or 4-nonylphenol; fold induction of the corrected BRET unit (618 nm/460 nm) over the vehicle control (0.1% DMSO). Particulars: remark: other sources report otherwise. A general note: Bioluminescence resonance energy transfer reports proximity on the nanometre scale.

B1: human estrogen receptor-alpha (ERα) fused at its N-terminus with NanoLuc luciferase (Nluc-ERα) or HaloTag (HT-ERα), P03372 1-595 (receptor)
chain: T1 chain
modifications: here or on the partner: HaloTag NanoBRET 618 ligand on the HaloTag of the acceptor copy; HaloTag NanoBRET 618 ligand on the HaloTag of the acceptor copy
On to B1, for which the fold induction of the BRET signal over vehicle control, with 4-nonylphenol was 2.3 fold; the fold induction of the BRET signal over vehicle control, with 17α-estradiol 10^-8 M came to 2.7 fold; the fold induction of the BRET signal over vehicle control, with E2 10^-9 M amounted to 2.7 fold; the fold induction of the BRET signal over vehicle control, with bisphenol A 10^-5 M was 5.7 fold. This molecule also showed a fold induction of the BRET signal over vehicle control, with diethylhexyl phthalate of 2.3 fold.
